Measurements taken from article PMC4693281.

Assay: competitive inhibition, sperm binding to ZP-coated wells
Conditions: glycan lost; control: ZP3(32–178)/ZP4

Row | Protein | other: inhibition of sperm-ZP binding
1 | zona pellucida glycoprotein ZP3: ZP3(32–178)N124D (protein) parent chain: MGPCSRLFVCFLLWGSTELCSPQPFWDDETERFRPSKPPAVMVECQEAQLVVTVDKDLFGTGKLIRPADLTLGPDNCEPLASADTDGVVRFAVGLHECGNILQVTDNALVYSTFLLHNPRPAGNLSILRTNRAEVPIECHYPRQGNVSSWAIQPTWVPFRTTVFSEEKLVFSLRLMEENWSAEKMTPTFQLGDRAHLQAQVHTGSHVPLRLFVDHCVASLTPDWSTSPYHTIVDFHGCLVDGLTDASSAFKAPRPRPEILQFTVDVFRFANDSRNMIYITCHLKVTPVDRVPDQLNKACSFSKSSNRWSPVEGPTDICRCCSKGRCGISGRSMRLSHREGRPVPRSRRHVTEEADVTVGPLIFLRKMNDRGVEGPTSSPPLVMLGLGLATVMTLTLAAIVLGLTGRLRAASHPVCPVSASQ | no change
2 | zona pellucida glycoprotein ZP3: ZP3(32–178)N146D (protein) parent chain: MGPCSRLFVCFLLWGSTELCSPQPFWDDETERFRPSKPPAVMVECQEAQLVVTVDKDLFGTGKLIRPADLTLGPDNCEPLASADTDGVVRFAVGLHECGNILQVTDNALVYSTFLLHNPRPAGNLSILRTNRAEVPIECHYPRQGNVSSWAIQPTWVPFRTTVFSEEKLVFSLRLMEENWSAEKMTPTFQLGDRAHLQAQVHTGSHVPLRLFVDHCVASLTPDWSTSPYHTIVDFHGCLVDGLTDASSAFKAPRPRPEILQFTVDVFRFANDSRNMIYITCHLKVTPVDRVPDQLNKACSFSKSSNRWSPVEGPTDICRCCSKGRCGISGRSMRLSHREGRPVPRSRRHVTEEADVTVGPLIFLRKMNDRGVEGPTSSPPLVMLGLGLATVMTLTLAAIVLGLTGRLRAASHPVCPVSASQ | decreases
3 | zona pellucida glycoprotein ZP3: ZP3(32–178)N124,146D (protein) parent chain: MGPCSRLFVCFLLWGSTELCSPQPFWDDETERFRPSKPPAVMVECQEAQLVVTVDKDLFGTGKLIRPADLTLGPDNCEPLASADTDGVVRFAVGLHECGNILQVTDNALVYSTFLLHNPRPAGNLSILRTNRAEVPIECHYPRQGNVSSWAIQPTWVPFRTTVFSEEKLVFSLRLMEENWSAEKMTPTFQLGDRAHLQAQVHTGSHVPLRLFVDHCVASLTPDWSTSPYHTIVDFHGCLVDGLTDASSAFKAPRPRPEILQFTVDVFRFANDSRNMIYITCHLKVTPVDRVPDQLNKACSFSKSSNRWSPVEGPTDICRCCSKGRCGISGRSMRLSHREGRPVPRSRRHVTEEADVTVGPLIFLRKMNDRGVEGPTSSPPLVMLGLGLATVMTLTLAAIVLGLTGRLRAASHPVCPVSASQ | decreases
